Patent publication CN106046162A (DONG ZHUMING BIOTECH CO LTD, dated 2016)

Tests used:
人PD-1-Fc重组蛋白(RD) [1] = target: T1, 人PD-1-Fc重组蛋白(RD) (human, UniProt Q15116 21-167, limits assumed); experiment: ELISA, 3-fold dilutions of the antibody in 12 steps, goat anti-mouse IgG-Fc-HRP; the text prints the coat as hPD-L1-Fc but reports affinity for PD-1
T1 construct: Bought recombinant protein (RD); also called hPD-1-Fc; hPD-1; not shown: Fc part of the bought fusion protein

人PD-1-Fc重组蛋白(RD) [2] = target: T1, 人PD-1-Fc重组蛋白(RD); experiment: Biacore blocking assay, hPD-1-Fc on the chip, 2-fold dilutions of the antibody in 7 steps; blocks PD-1 binding to B7-H1

T1 sequence (Q15116 21-167 limits assumed): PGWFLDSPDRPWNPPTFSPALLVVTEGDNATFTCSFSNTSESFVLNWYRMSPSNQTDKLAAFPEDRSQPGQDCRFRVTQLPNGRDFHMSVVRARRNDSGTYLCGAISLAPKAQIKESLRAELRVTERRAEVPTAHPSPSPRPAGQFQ

EC50 (人PD-1-Fc重组蛋白(RD) [1]): 1.07 nM
EC50 (人PD-1-Fc重组蛋白(RD) [2]): 64.4 nM
B1: 抗人PD-1单克隆抗体2-189-H-1 (antibody, V domains shown)
VH: QVQLKESGPGLVAPSQSLSITCTVSGFSLTTYGVSWVRQPPGKGLEWLGVIWGDGSTDYHSVLISRLSITKDISKSQVFLKLNSLQSDDTATYYCAQQGSRGDYWGQGTTLTVSS
VL: DVLLTQTPLSLPVSLGDQASISCRSSQTIVHSNGITYLEWYLQKPGQSPKALISKVSNRLSGVPDRFSGSGSGTDFTLKISRVEAEDLGVYYCFQGSHIPYTFGGGTKLEIK
notes: Mouse hybridoma antibody (CCTCC C2015160), purified on Protein A; also called 本抗体; hPD-1抗体
